{
  "source": "patent US20220195015A1",
  "about": "(published 2022)",
  "binders": {"B1": {"name": "C558 (antibody, V domains shown)", "VH": "EVQLVQSGAEVKKPGESLKISCKVSGYTFTNYWIGWVRQMPGKGLEWMGIIYPGDSDTRYSPSFQGQVTISADKSIITAYLQWSSLKASDTAMYYCARVPSSSDYGDYGGFEYWGQGTLVTVSS", "VL": "not shown"}, "B2": {"name": "C559 (antibody, V domains shown)", "VH": "B1 VH with Y52F, K74R, I77T, S84R", "VL": "DIQMTQSPSSLSASVGDRVTITCRASQTITIYLNWYQQKPGKAPKLLIYAASSLQSGVPSRFSGSGSGTDFTLTISSLQPEDFATYYCQQSYSTPCSFGQGTKLEIK"}, "B3": {"name": "C535 (antibody, V domains shown)", "VH": "EVQLVESGGALVQPGRSLRLSCAASGFTFDDYAMHWVRQAPGKGLEWVSSISWNGVSIGYADSVRGRFTISRDNAKNSLYLQMNSLKIGDTAFYYCARGLDGSSSASPDSWGQGTLVTVSS", "VL": "DIQMTQSPSSVSASVGDRVTITCRASQGIGSWLAWYQQKPGKAPKLLIYLASSLQSGVPSRFSGSGSGTYFTLTISGLQPEDFATYYCQQGNSFPLTFGGGTKVEIK"}, "B4": {"name": "C552 (antibody, V domains shown)", "VH": "QVQLVESGGGVVQPGRSLRLSCAASGFTFSSYAMHWVRQAPGKGLEWVALISYDGSNKHYADSVKGRFTISRDNSKNTLYLQMNSLRAEDTAVYYCARAGTTNSDYFDYWGQGTLVTVSS", "VL": "SYELTQPPSVSVAPGKTARITCGGNNIGSKSVHWYQQKPGQAPVLVIYYDTDRPSGIPERFSGSNSGNTATLTISRVEAGDEADYYCQVWDSSSALWVFGGGTKLTVL"}, "B5": {"name": "C553 (antibody, V domains shown)", "VH": "B4 VH with S31N, A33E, M34I, L50G, N57T, H59Y, A88P, Y94F", "VL": "B4 VL with K16M, N26T, P39A, T51S, A95V"}, "B6": {"name": "C550 (antibody, V domains shown)", "VH": "EVQLVQSGAEVKKPGESLKISCKGSGYRFTNYWIGWVRQMPGKGLEWMGIIYPGDSDTRYSPSFQGQVTISADKSITTAYLQWSSLKASDTAMYYCARLSDRWYSPFDPWGQGTLVTVSS", "VL": "not shown"}, "B7": {"name": "C555 (antibody, V domains shown)", "VH": "EVQLVESGGGLVKPGGSLRLSCAASGLTFSTTWMSWVRQAPGKGLEWVGRIKSKGDGGTTDFAGPVKGRFSISRDDSKNTLYLHMNSLKTEDTAVYYCTTDDPGSYYYGMDVWGQGTTVTVSS", "VL": "QTVVTQEPSLTVSPGGTVTLTCASSTGAVTSGHYPYWFQQKPGQAPRTLIYATSNKHSWTPARFSGSLLGGKAALTLSGAQPEDEADYYCLLSYSGARVFGGGTKLTVL"}, "B8": {"name": "C560 (antibody, V domains shown)", "VH": "EVQLVESGGGLVQPGRSLRLSCAASGFTFDDYAMHWVRQAPGKGLEWVSGVSWNSGTIGYADSVKGRFTISRDNAKNSLYLQMNSLRAEDTALYYCAKIADIVRAYDFWSGQHFDAFDIWGQGTMVTVSS", "VL": "not shown"}, "B9": {"name": "C561 (antibody, V domains shown)", "VH": "B8 VH with M34I, T69F, L93W, I102L, R104G, W109R, D115A, I119V", "VL": "not shown"}, "B10": {"name": "C533 (antibody, V domains shown)", "VH": "EVQLVESGGSLVKPGGSLRLSCVASGLTFNHAWMSWVRQAPGKGLEWVGRIKSKIDGGTTDYAAPVKGRFTISRDDSKSTQYLQMNSLKTEDTAVYYCTTDCFWRLGGTTCYEHDAFDVWGQGTMVTVSS", "VL": "DIQMTQSPSSLSASVGDRVTITCRASQAIATFLNWYQQKPGKAPKLLIYAASSLQSGVPSRFSGSGSGTDFTLTISNLQPEDFATYYCQQSYNSLHFGGGTKVEIK"}, "B11": {"name": "C534 (antibody, V domains shown)", "VH": "QVQLVQSGAEVKKPGSSVRVSCKASGGTFSRNVISWVRQAPGQGLEWMGGIIPMFATANYAQKFQGRVTITADESSSTAYMELSSLRSEDTAVYYCAREDFILVSAPIRENSYYYYGMDVWGQGTTVTVSS", "VL": "EIVLTQSPGTLSLSPGERATLSCRASQSVSSNYLAWYQQKPGQAPRLLIYDASSRATGIPDRFSGSGSGTDFTLTISRLEPEDFAVYYCQQYGGSPRTFGQGTKVEIK"}, "B12": {"name": "C556 (antibody, V domains shown)", "VH": "QVQLVQSGAEVKKPGASVKVSCKASGYTFTYYYMHWVRQAPGQGLEWMGIINPSGGSTSYAQKFQGRVTMTRDTSTSTVYMELSSLRSEDTAVYYCARPLLPGETGSLNRLDYWGQGTLVTVSS", "VL": "not shown"}, "B13": {"name": "C573 (antibody, V domains shown)", "VH": "QVQLQESGPGLVKPSGTLSLTCAVSGGSISTVNWWSWVRQPPGKGLEWIGEIHHSGNTNHNPSLRSRVTISVDKSKNQFSLKLRSVTAADTAVYYCARDGGRPGDAFDLWGQGTMVTVSS", "VL": "QSALTQPASVSGSPGQSITISCTGTSSDVGGYNYVSWYQQHPGKVPKVMIYDVSNRPSGISNRFSGSKSGNTASLTISGLQAEDEADYYCNSYRSNSTRVFGTGTKVTV"}, "B14": {"name": "C580 (antibody, V domains shown)", "VH": "EVQLVQSGAEVKKAGESLKISCNSSGYSFTNYWIAWVRQVPGKGLEWMGIIYLGDSDTRYSPSFQGRVTISADKSISAAYLHWSSLKASDTAIYYCARGGPPGGVKLELTDFWGQGTLVTVSS", "VL": "not shown"}, "B15": {"name": "C578 (antibody, V domains shown)", "VH": "QVQLVESGGGVVQPGRSLRLSCAASGFTFSSSGMHWVRQAPGKGLEWVAIISYDGSNKYYADSVKGRFTISRDNSKNTLSLQMNSLRAEDTAVYYCAKDPLPFRDFFYYYMDVWGKGTTVTVSS", "VL": "QSALTQPASVSGSPGQSITISCTGTSSDVGGYNYVSWYQQHPGKAPKLMIYDVSNRPSGVSNRFSGSKSGNTASLTISGLQAEDEADYYCSSYTSSSTLGVFGTGTKVTVL"}, "B16": {"name": "C568 (antibody, V domains shown)", "VH": "QVQLVQSGAEVKKPGASVKVSCTASGYTFSSYYIHWVRQAPGQGLEWMGIINPGAGSTSYAQKFQGRVAMTTDTSTRTVYMELSSLRSDDTAVYYCARDEAFLPSAIFVGDYWGQGTLVTVSS", "VL": "DIQMTQSPSSLSASVGDRVTITCRASQGIRNDLGWYQQKPGKAPKRLIYAASNLQSGVPSRFSGSGSGTEFTLTISSLQPEDFATYYCLQHSTYPHTWTFGQGTKVEIK"}, "B17": {"name": "C574 (antibody, V domains shown)", "VH": "QVQLVQSGAEVKKPGASVKVSCKASGYTFTSYGFSWVRQAPGQGLEWLGWISAYNGNTNYAQKLQGRVTMTTDTSTSTAYMELRSLRSDDTAVYYCARAIAVAGTSGEFDYWGQGTLVTVSS", "VL": "not shown"}, "B18": {"name": "C570 (antibody, V domains shown)", "VH": "QVQLQESGPGLVKPSETLSLTCTVSGASISSYYWSWIRQPPGKGLEWIGYIYYSGSTNYNPSLKSRVTISLDTSKNQFSLQLSSVTAADTAVYYCATYYFDNSGYSYGLDVWGQGTTVTVSS", "VL": "DIQMTQSPSSLSASVGDRVTIACRASQSISSYLHWYQQQPGKAPKLLIYAVTNLQSGVPSRFSGSGSGTDFTLTISSLQPEDFATYYCQQSYSLPQTFGQGTKVEIK"}, "B19": {"name": "C576 (antibody, V domains shown)", "VH": "QVQLVQSGAEVKKPGSSVKVSCKASGGTFSIYAISWVRQAPGQGLEWMGGIIPILGTANYAQKFQGRVTITADESTSTAYMELSSLRSEDTAVYYCASFHVAYGDYIPFDYWGQGTLVTVSS", "VL": "not shown"}, "B20": {"name": "C567 (antibody, V domains shown)", "VH": "QVQLQESGPGLVKPSETLSLTCTVSGGSVINGSYYWSWIRQPPGKGLEWIGFVYYSGSTNYNPSLKSRVTISVDTSKNQFSLNLNSVTAADTAVYYCATGSKSSYYFDYWGQGTLVTVSS", "VL": "QSVLTQPPSVSAAPGQKVTISCSGSSSNIGNNYVSWYQQLPGAAPKLLIYENNMRPSGIPDRFSGSKSGTSATLGITGLQTGDEADYYCGTWDSSLSVPYVFGTGTRVTVL"}, "B21": {"name": "C581 (antibody, V domains shown)", "VH": "EVQLVQSGAEVKKPGESLKISCKGSGYRFTSYWIAWVRQMPGKGLEWMGIIYPGDSDTRYSPSFQGQVTISADQSISTAYLQWSSLKASDTAMYYCARGGPPGGVKLELTDYWGQGALVTVSS", "VL": "not shown"}, "B22": {"name": "C572 (antibody, V domains shown)", "VH": "EVQLVESGGGLIKPGRSLRLSCTASGFTFGDYAMTWFRQAPGKGLEWVGFIRSKAYGGTTGYAASVKYRFTISRDDSKSIAYLQMDSLKTEDTAVYYCTRWDGWSQHDYWGQGTLVTVSS", "VL": "DIVMTQSPLSLSVTPGEPASISCRSSQSLLHSNGNNYFDWYLQKPGQSPQLLIYLASNRASGVPDRFSGSGSGTDFTLKISRVEAEDVGVYYCMQVLQIPYTFGQGTKLEI"}, "B23": {"name": "C569 (antibody, V domains shown)", "VH": "QVQLVESGGNVVQPGRSLRLSCAASGFTFSNYGMHWIRQAPGKGLEWVAVISYDGSDKYYADSVKGRVTISRDNSKNTLYLQMNSLRAEDTAVYYCAKGGPYGDHVRSDYWGLGTLVTVSS", "VL": "DIQMTQSPSSLSASVGDRVTITCQASQDISNYLNWYQQKPGKVPKLLIYDASNLETGVPSRFSGSGSGTDFTFTISSLQPEDIATYYCQQFHNLPLTFGQGTKLEIK"}, "B24": {"name": "C571 (antibody, V domains shown)", "VH": "EVQLVESGGGLIQPGGSLKLSCVVSGFTVSRNYISWVRQAPGKGLEWVSVLFAGGSTFYADSVKGRFAISRDNSNNTLFLQMNSLRVEDTAIYYCARGDGELIFDQWGQGTLVTVSS", "VL": "QSVLTQPPSVSGAPGQRVTIVCTGTSSNIGAGYDVHWYQQLPGRAPKVLVSGNNIRPSEVPDRFSGSRSGTSASLAITSLQPEDEAQYYCQSYDSNLYAVFGGGTKLTVL"}, "B25": {"name": "C577 (antibody, V domains shown)", "VH": "QVQLVQSGAEVKKPGSSVKVSCKASGDTFSIYAFSWVRQAPGQGLQWMGAIIPLLGTTNYAQKFLGRVTITADESTSTTFMELSSLTSEDTAVYHCATFHVAYGDYIPFDSWGQGTLVIVSS", "VL": "not shown"}, "B26": {"name": "C566 (antibody, V domains shown)", "VH": "QVQLQESGPGLVKSSQTLSLNCSVFGASISSGGYYWTWIRQHPGKGLEWIGYIHYRGTYYNPSLKSRVTMSVDTSKNQFSLKVRSVSAADTAIYYCARAIVVVTLNWFDLWGQGTLVTVSS", "VL": "NFMLTQPHSVSESPGKTVTISCSGSGGSIASNYVQWYQQRPGSAPTAVIYEDNQRPSGVPDRFSGSIDSSSNSASLTISGLKTEDEADYYCQSYDTSNPVIFGGGTKLTV"}},
  "note": "Numbering of substitutions follows the chain as printed.",
  "data": [
    {"molecular_target": "SARS-CoV-2 spike protein receptor binding domain (RBD) (SARS-CoV-2, UniProt P0DTC2 319-539)", "test": "ELISA, RBD coated on plate, mAb titrated", "units": {"EC50": "ng/mL"}, "values": [
      {"binder": "B1", "EC50": 2.41},
      {"binder": "B2", "EC50": 2.89},
      {"binder": "B3", "EC50": 2.46},
      {"binder": "B4", "EC50": 1.08},
      {"binder": "B5", "EC50": 1.19},
      {"binder": "B6", "EC50": 2.56},
      {"binder": "B7", "EC50": 2.88},
      {"binder": "B8", "EC50": 1.6},
      {"binder": "B9", "EC50": 1.53},
      {"binder": "B10", "EC50": 1.61},
      {"binder": "B11", "EC50": 4.85},
      {"binder": "B12", "EC50": 1.36}
    ]},
    {"molecular_target": "SARS-CoV-2 spike protein receptor binding domain (RBD) (SARS-CoV-2, UniProt P0DTC2 319-539)", "test": "ELISA on plate-coated RBD", "units": {"EC50": "ng/mL"}, "values": [
      {"binder": "B13", "EC50": 2.2},
      {"binder": "B14", "EC50": 1.82},
      {"binder": "B15", "EC50": 1.08},
      {"binder": "B16", "EC50": 5.99},
      {"binder": "B17", "EC50": 8.12},
      {"binder": "B18", "EC50": 0.74},
      {"binder": "B19", "EC50": 5.29},
      {"binder": "B20", "EC50": 18.9},
      {"binder": "B21", "EC50": 1.58},
      {"binder": "B22", "EC50": 2.9},
      {"binder": "B23", "EC50": 11.1},
      {"binder": "B24", "EC50": 4.63},
      {"binder": "B25", "EC50": 1.32},
      {"binder": "B26", "EC50": 5.88}
    ]}
  ]
}
